Source: the RNAGym collection of RNA variant scans (doi:10.1093/molbev/msab373)

B1: Azoarcus group I ribozyme (parent)
chain: GUGCCUUGCGCCGGGAAACCACGCAAGGGAUGGUGUCAAAUUCGGCGAAACCUAAGCGCCCGCCCGGGCGUAUGGCAACGCCGAGCCAAGCUUCGGCGCCUGCGCCGAUGAAGGUGUAGAGACUAGACGGCACCCACCUAAGGCAAACGCUAUGGUGAAGGCAUAGUCCAGGGAGUGGCGAAAGUCACACAAACCGG

Variants of: B1
Assay: reverse-splicing fitness (ratio to wild type); higher = more active; in vitro selection; Mg2+ level not given
Summary of the method: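 An in vitro group I ribozyme library with randomized positions was T7-transcribed and gel-purified. In triplicate, 10 pmol RNA in EPPS pH 7.5 was reacted with 50 pmoles of a 30-nt RNA substrate for 1 h at 37 °C across several added MgCl2 levels (1–48 mM), then stopped with EDTA. Products were reverse transcribed from a substrate-complementary primer, PCR-amplified and sequenced (HiSeq 4000). Fitness is a variant's read proportion after selection over that before, normalised to wild type.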

Row | Variant | reverse-splicing fitness
1 | GUGCCUUGCGCCGGGAAACCACGCAAGGGAUGGUGUCAAAUUCGGCGAAACCUAAGCGCCCGCCCGGGCGUAUGGCAACGCAGAGCCAAGCUUCGGCGCCUGCGCCGAUGUAGGUGUAGCGACUAGACGGCACCCACCUAAGGCCAACGAUAUGGUGAAGGCAUAGUCAAGGGAGCGGCGAAAGUCACACAAACCGG | 0.0164
2 | GUGCCUUGCGCCGGGAAACCACGCAAGGGAUGGUGUCAAAUUCGGCGAAACCUAAGCGCCCGCCCGGGCGUAUGGCAACGCAGAGCCAAGCUUCGGCGCCUGCGCCGAUGUAGGUGUAGCGACUAGACGGCACCCACCUAAGGCCAACGAUAUGGUGAAGGCAUAGUCAAGGGAGAGGCGAAAGUCACACAAACCGG | 0.0206
3 | GUGCCUUGCGCCGGGAAACCACGCAAGGGAUGGUGUCAAAUUCGGCGAAACCUAAGCGCCCGCCCGGGCGUAUGGCAACGCAGAGCCAAGCUUCGGCGCCUGCGCCGAUGUAGGUGUAGAGACUAGACGGCACCCACCUAAGGCAAACGCUAUGGUGAAGGCAUAGUCCAGGGAGUGGCGAAAGUCACACAAACCGG | 0.299
4 | GUGCCUUGCGCCGGGAAACCACGCAAGGGAUGGUGUCAAAUUCGGCGAAACCUAAGCGCCCGCCCGGGCGUAUGGCAACGCAGAGCCAAGCUUCGGCGCCUGCGCCGAUGGAGGUGUAGAGACUAGACGGCACCCACCUAAGGCAAACGCUAUGGUGAAGGCAUAGUCGAGGGAGCGGCGAAAGUCACACAAACCGG | 0.0207
5 | GUGCCUUGCGCCGGGAAACCACGCAAGGGAUGGUGUCAAAUUCGGCGAAACCUAAGCGCCCGCCCGGGCGUAUGGCAACGCAGAGCCAAGCUUCGGCGCCUGCGCCGAUGGAGGUGUAGAGACUAGACGGCACCCACCUAAGGCAAACGCUAUGGUGAAGGCAUAGUCGAGGGAGGGGCGAAAGUCACACAAACCGG | 0.00548
6 | GUGCCUUGCGCCGGGAAACCACGCAAGGGAUGGUGUCAAAUUCGGCGAAACCUAAGCGCCCGCCCGGGCGUAUGGCAACGCAGAGCCAAGCUUCGGCGCCUGCGCCGAUGGAGGUGUAGAGACUAGACGGCACCCACCUAAGGCAAACGCUAUGGUGAAGGCAUAGUCGAGGGAGAGGCGAAAGUCACACAAACCGG | 0.0181
7 | GUGCCUUGCGCCGGGAAACCACGCAAGGGAUGGUGUCAAAUUCGGCGAAACCUAAGCGCCCGCCCGGGCGUAUGGCAACGCAGAGCCAAGCUUCGGCGCCUGCGCCGAUGGAGGUGUAGAGACUAGACGGCACCCACCUAAGGCAAACGCUAUGGUGAAGGCAUAGUCUAGGGAGAGGCGAAAGUCACACAAACCGG | 0.0153
8 | GUGCCUUGCGCCGGGAAACCACGCAAGGGAUGGUGUCAAAUUCGGCGAAACCUAAGCGCCCGCCCGGGCGUAUGGCAACGCAGAGCCAAGCUUCGGCGCCUGCGCCGAUGGAGGUGUAGAGACUAGACGGCACCCACCUAAGGCAAACGCUAUGGUGAAGGCAUAGUCUAGGGAGCGGCGAAAGUCACACAAACCGG | 0.0142
9 | GUGCCUUGCGCCGGGAAACCACGCAAGGGAUGGUGUCAAAUUCGGCGAAACCUAAGCGCCCGCCCGGGCGUAUGGCAACGCAGAGCCAAGCUUCGGCGCCUGCGCCGAUGGAGGUGUAGAGACUAGACGGCACCCACCUAAGGCAAACGCUAUGGUGAAGGCAUAGUCUAGGGAGGGGCGAAAGUCACACAAACCGG | 0.00547
10 | GUGCCUUGCGCCGGGAAACCACGCAAGGGAUGGUGUCAAAUUCGGCGAAACCUAAGCGCCCGCCCGGGCGUAUGGCAACGCAGAGCCAAGCUUCGGCGCCUGCGCCGAUGUAGGUGUAGCGACUAGACGGCACCCACCUAAGGCAAACGCUAUGGUGAAGGCAUAGUCCAGGGAGUGGCGAAAGUCACACAAACCGG | 0.0268
11 | GUGCCUUGCGCCGGGAAACCACGCAAGGGAUGGUGUCAAAUUCGGCGAAACCUAAGCGCCCGCCCGGGCGUAUGGCAACGCAGAGCCAAGCUUCGGCGCCUGCGCCGAUGUAGGUGUAGCGACUAGACGGCACCCACCUAAGGCCAACGAUAUGGUGAAGGCAUAGUCUAGGGAGAGGCGAAAGUCACACAAACCGG | 0.0157
12 | GUGCCUUGCGCCGGGAAACCACGCAAGGGAUGGUGUCAAAUUCGGCGAAACCUAAGCGCCCGCCCGGGCGUAUGGCAACGCAGAGCCAAGCUUCGGCGCCUGCGCCGAUGUAGGUGUAGCGACUAGACGGCACCCACCUAAGGCCAACGAUAUGGUGAAGGCAUAGUCUAGGGAGCGGCGAAAGUCACACAAACCGG | 0.0124
13 | GUGCCUUGCGCCGGGAAACCACGCAAGGGAUGGUGUCAAAUUCGGCGAAACCUAAGCGCCCGCCCGGGCGUAUGGCAACGCAGAGCCAAGCUUCGGCGCCUGCGCCGAUGGAGGUGUAGAGACUAGACGGCACCCACCUAAGGCAAACGCUAUGGUGAAGGCAUAGUCCAGGGAGCGGCGAAAGUCACACAAACCGG | 0.262
14 | GUGCCUUGCGCCGGGAAACCACGCAAGGGAUGGUGUCAAAUUCGGCGAAACCUAAGCGCCCGCCCGGGCGUAUGGCAACGCAGAGCCAAGCUUCGGCGCCUGCGCCGAUGGAGGUGUAGAGACUAGACGGCACCCACCUAAGGCAAACGCUAUGGUGAAGGCAUAGUCCAGGGAGAGGCGAAAGUCACACAAACCGG | 0.189
15 | GUGCCUUGCGCCGGGAAACCACGCAAGGGAUGGUGUCAAAUUCGGCGAAACCUAAGCGCCCGCCCGGGCGUAUGGCAACGCAGAGCCAAGCUUCGGCGCCUGCGCCGAUGGAGGUGUAGAGACUAGACGGCACCCACCUAAGGCAAACGCUAUGGUGAAGGCAUAGUCCAGGGAGGGGCGAAAGUCACACAAACCGG | 0.0537
